From article PMC4113749 (Toxins, 2014)

Molecular target: TcdA^(1–542 D285/287N)-EGFP (Clostridium difficile (strain VPI 10463), UniProt P16154 1-542)
Assay: MST
Details: both partners purified

B1: isolated TcdA CROPs (TcdA^1875–2710) (domain or fragment)
chain: YKIINGKHFYFNNDGVMQLGVFKGPDGFEYFAPANTQNNNIEGQAIVYQSKFLTLNGKKYYFDNNSKAVTGWRIINNEKYYFNPNNAIAAVGLQVIDNNKYYFNPDTAIISKGWQTVNGSRYYFDTDTAIAFNGYKTIDGKHFYFDSDCVVKIGVFSTSNGFEYFAPANTYNNNIEGQAIVYQSKFLTLNGKKYYFDNNSKAVTGLQTIDSKKYYFNTNTAEAATGWQTIDGKKYYFNTNTAEAATGWQTIDGKKYYFNTNTAIASTGYTIINGKHFYFNTDGIMQIGVFKGPNGFEYFAPANTDANNIEGQAILYQNEFLTLNGKKYYFGSDSKAVTGWRIINNKKYYFNPNNAIAAIHLCTINNDKYYFSYDGILQNGYITIERNNFYFDANNESKMVTGVFKGPNGFEYFAPANTHNNNIEGQAIVYQNKFLTLNGKKYYFDNDSKAVTGWQTIDGKKYYFNLNTAEAATGWQTIDGKKYYFNLNTAEAATGWQTIDGKKYYFNTNTFIASTGYTSINGKHFYFNTDGIMQIGVFKGPNGFEYFAPANTDANNIEGQAILYQNKFLTLNGKKYYFGSDSKAVTGLRTIDGKKYYFNTNTAVAVTGWQTINGKKYYFNTNTSIASTGYTIISGKHFYFNTDGIMQIGVFKGPDGFEYFAPANTDANNIEGQAIRYQNRFLYLHDNIYYFGNNSKAATGWVTIDGNRYYFEPNTAMGANGYKTIDNKNFYFRNGLPQIGVFKGSNGFEYFAPANTDANNIEGQAIRYQNRFLHLLGKIYYFGNNSKAVTGWQTINGKVYYFMPDTAMAAAGGLFEIDGVIYFFGVDGVKAPGIYG
  Kd: 2960 ± 180 nM
